As a reminder, the pKd is the negative decadic logarithm of the Kd, by convention in mol/L.

Among the targets are PDLIM4, P50479; TJP1_1, Q07157; AHNAK2, Q8IVF2; MAGI3_3, Q5TCQ9; MAGI3_6, Q5TCQ9; SDCBP_1, O00560; RGS3, P49796-9; PDZRN4_2, Q6ZMN7; MAGI1_3, Q96QZ7; DLG2_1, Q15700; PARD3B_3, Q8TEW8; RIMS1, Q86UR5.
Assay in all cases: holdup assay
Design in all cases: key: below the threshold = too weak to quantify, mostly under pKd 3.1 to 4
Common to all, as to details: plain residues with an end cap or a label only (N-terminal biotin on a linker: ttds)

For the next assay, the target named is T1, DVL1, O14640.
T1 sequence (O14640 246-333, limits assumed, looked up): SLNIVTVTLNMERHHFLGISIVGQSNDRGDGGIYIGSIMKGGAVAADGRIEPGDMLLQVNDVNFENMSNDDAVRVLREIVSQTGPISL

Another assay has as its target T2, PDLIM3, Q53GG5.
T2 sequence (Q53GG5 1-94, limits assumed, looked up): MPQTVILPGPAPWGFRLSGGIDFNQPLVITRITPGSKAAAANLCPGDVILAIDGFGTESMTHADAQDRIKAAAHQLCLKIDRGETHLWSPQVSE

In the next assay the target is T3, MAGI2_1, Q86UL8.
T3 sequence (Q86UL8 12-111, limits assumed, looked up): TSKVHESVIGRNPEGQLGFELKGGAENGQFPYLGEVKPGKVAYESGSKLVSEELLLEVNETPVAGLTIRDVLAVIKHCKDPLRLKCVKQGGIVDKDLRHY

In the next assay the target is T4, RGS12, O14924.
T4 sequence (O14924 17-108, limits assumed, looked up): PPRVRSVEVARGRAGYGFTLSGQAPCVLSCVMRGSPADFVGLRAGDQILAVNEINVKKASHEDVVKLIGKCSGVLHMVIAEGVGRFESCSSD

The target of the next assay is T5, PDZD7_2, Q9H5P4.
T5 sequence (Q9H5P4 205-303, limits assumed, looked up): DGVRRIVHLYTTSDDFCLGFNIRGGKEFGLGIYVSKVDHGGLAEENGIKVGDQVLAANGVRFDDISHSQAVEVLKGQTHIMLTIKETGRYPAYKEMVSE

In another assay the target is T6, PTPN4, P29074.
T6 sequence (P29074 512-599, limits assumed, looked up): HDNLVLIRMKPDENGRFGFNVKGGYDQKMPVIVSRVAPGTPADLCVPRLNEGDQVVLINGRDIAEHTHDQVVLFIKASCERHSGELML

Another assay has as its target T7, NHERF1_2, O14745.
T7 sequence (O14745 149-244, limits assumed, looked up): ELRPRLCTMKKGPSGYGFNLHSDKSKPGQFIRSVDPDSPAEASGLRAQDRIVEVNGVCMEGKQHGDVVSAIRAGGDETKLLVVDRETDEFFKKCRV

A further assay concerns the target T8, GRIP1_1, Q9Y3R0.
T8 sequence (Q9Y3R0 48-146, limits assumed, looked up): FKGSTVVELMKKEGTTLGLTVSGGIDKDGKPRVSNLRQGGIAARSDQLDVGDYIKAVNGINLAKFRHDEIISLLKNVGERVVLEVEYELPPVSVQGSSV

The next assay deals with T9, LNX2_4, Q8N448.
T9 sequence (Q8N448 595-690, limits assumed, looked up): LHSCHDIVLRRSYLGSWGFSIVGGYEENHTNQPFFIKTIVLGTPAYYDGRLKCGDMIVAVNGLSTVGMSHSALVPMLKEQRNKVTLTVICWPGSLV

Another assay deals with T10, MLLT4, P55196.
T10 sequence (P55196 1002-1103, limits assumed, looked up): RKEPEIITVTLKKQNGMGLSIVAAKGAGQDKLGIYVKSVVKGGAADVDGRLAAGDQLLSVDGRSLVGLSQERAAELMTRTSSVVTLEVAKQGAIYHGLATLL

The target in a further assay is T11, PDZD2_1, O15018.
T11 sequence (O15018 80-192, limits assumed, looked up): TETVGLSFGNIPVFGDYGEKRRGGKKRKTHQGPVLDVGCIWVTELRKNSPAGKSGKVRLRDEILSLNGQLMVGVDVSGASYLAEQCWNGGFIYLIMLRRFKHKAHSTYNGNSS

Another assay addresses T12, PTPN13_4, Q12923.
T12 sequence (Q12923 1783-1878, limits assumed, looked up): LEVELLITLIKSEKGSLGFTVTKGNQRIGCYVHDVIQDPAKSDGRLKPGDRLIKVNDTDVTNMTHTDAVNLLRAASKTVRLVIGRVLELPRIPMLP

The next assay has as its target T13, APBA3_2, O96018.
T13 sequence (O96018 480-570, limits assumed, looked up): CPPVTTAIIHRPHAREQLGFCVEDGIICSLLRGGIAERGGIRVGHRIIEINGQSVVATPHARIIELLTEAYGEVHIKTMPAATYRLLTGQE

Chain of RGS3, P49796-9 (P49796 other isoform, or with tags, fused parts or gaps): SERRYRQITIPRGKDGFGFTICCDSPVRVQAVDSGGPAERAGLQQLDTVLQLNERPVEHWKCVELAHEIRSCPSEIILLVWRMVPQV
Chain of TJP1_1, Q07157 (Q07157 18-120): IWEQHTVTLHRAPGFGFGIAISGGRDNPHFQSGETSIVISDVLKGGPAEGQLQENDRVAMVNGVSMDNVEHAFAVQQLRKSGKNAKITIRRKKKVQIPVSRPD
Chain of MAGI3_3, Q5TCQ9 (Q5TCQ9 572-655): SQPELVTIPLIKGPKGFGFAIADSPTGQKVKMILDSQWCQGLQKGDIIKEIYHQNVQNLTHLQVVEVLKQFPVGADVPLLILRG
Chain of PDLIM4, P50479 (P50479 1-83): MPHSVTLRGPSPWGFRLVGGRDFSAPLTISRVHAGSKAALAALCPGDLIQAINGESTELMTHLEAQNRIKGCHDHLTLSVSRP
Chain of RIMS1, Q86UR5 (Q86UR5 584-692): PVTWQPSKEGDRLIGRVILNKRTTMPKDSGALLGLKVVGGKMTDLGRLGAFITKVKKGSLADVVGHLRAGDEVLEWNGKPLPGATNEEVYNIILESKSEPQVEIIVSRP
Chain of PDZRN4_2, Q6ZMN7 (Q6ZMN7 389-498): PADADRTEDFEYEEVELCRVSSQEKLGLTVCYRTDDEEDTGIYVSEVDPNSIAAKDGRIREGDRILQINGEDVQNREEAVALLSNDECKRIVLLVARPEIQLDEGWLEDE
Chain of PARD3B_3, Q8TEW8 (Q8TEW8 490-594): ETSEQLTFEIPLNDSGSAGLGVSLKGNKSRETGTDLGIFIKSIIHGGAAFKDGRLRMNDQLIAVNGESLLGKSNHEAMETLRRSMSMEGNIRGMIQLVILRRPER
Chain of MAGI1_3, Q96QZ7 (Q96QZ7 638-725): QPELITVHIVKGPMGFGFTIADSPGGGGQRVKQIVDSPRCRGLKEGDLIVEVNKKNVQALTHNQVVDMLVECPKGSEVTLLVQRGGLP
Chain of MAGI3_6, Q5TCQ9 (Q5TCQ9 1014-1103): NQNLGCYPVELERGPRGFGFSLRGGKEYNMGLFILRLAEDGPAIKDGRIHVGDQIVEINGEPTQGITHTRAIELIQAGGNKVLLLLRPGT
Chain of SDCBP_1, O00560 (O00560 111-198): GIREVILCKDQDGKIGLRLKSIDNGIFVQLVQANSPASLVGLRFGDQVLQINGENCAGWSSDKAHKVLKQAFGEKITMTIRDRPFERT
Chain of AHNAK2, Q8IVF2 (Q8IVF2 108-193): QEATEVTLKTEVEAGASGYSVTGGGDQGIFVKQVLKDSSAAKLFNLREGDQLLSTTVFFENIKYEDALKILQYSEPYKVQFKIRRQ

B1: RASSF6, Q6ZTQ3 (peptide)
chain: KLVIKTETTV
In the case of B1, the pKd result with DVL1, O14640 was “below the threshold”; with PDLIM3, Q53GG5, “below the threshold”; with PDLIM4, P50479, 4.09; in the assay with TJP1_1, Q07157, “below the threshold”; with AHNAK2, Q8IVF2, “below the threshold”; with MAGI2_1, Q86UL8, “below the threshold”. The pKd result is “below the threshold” with RGS12, O14924; “below the threshold” in the assay with MAGI3_3, Q5TCQ9; 4.15 with MAGI3_6, Q5TCQ9; “below the threshold” with PDZD7_2, Q9H5P4; 4.33 in the assay with PTPN4, P29074; “below the threshold” in the assay with NHERF1_2, O14745. Besides, the pKd result is on record as “below the threshold” with SDCBP_1, O00560; “below the threshold” in the assay with GRIP1_1, Q9Y3R0; “below the threshold” in the assay with LNX2_4, Q8N448; “below the threshold” with RGS3, P49796-9; “below the threshold” in the assay with PDZRN4_2, Q6ZMN7; “below the threshold” with MLLT4, P55196. Besides, the pKd was 4.32 with MAGI1_3, Q96QZ7; “below the threshold” with PDZD2_1, O15018; 4.95 in the assay with DLG2_1, Q15700; “below the threshold” with PTPN13_4, Q12923; “below the threshold” with PARD3B_3, Q8TEW8; “below the threshold” with RIMS1, Q86UR5.

B2: NET1, Q7Z628 (peptide)
chain: SGGKRKETLV
Regarding B2, the pKd result in the assay with DVL1, O14640 was “below the threshold”; with PDLIM3, Q53GG5 it was “below the threshold”; in the assay with PDLIM4, P50479, “below the threshold”; with TJP1_1, Q07157, 3.89; in the assay with MAGI2_1, Q86UL8 it was “below the threshold”; with RGS12, O14924, “below the threshold”. The pKd entry in the assay with APBA3_2, O96018 was “below the threshold”; in the assay with MAGI3_3, Q5TCQ9, “below the threshold”; in the assay with MAGI3_6, Q5TCQ9 it was “below the threshold”; with PDZD7_2, Q9H5P4, “below the threshold”; in the assay with PTPN4, P29074, 3.51; in the assay with NHERF1_2, O14745 it was “below the threshold”. The negative-log Kd (pKd) result in the assay with SDCBP_1, O00560 was “below the threshold”; with GRIP1_1, Q9Y3R0, “below the threshold”; with RGS3, P49796-9 it was “below the threshold”; with PDZRN4_2, Q6ZMN7, “below the threshold”; with MLLT4, P55196 it was 4.02; with MAGI1_3, Q96QZ7 it was 4.91. Also, the pKd entry was “below the threshold” in the assay with PDZD2_1, O15018; 4.87 with DLG2_1, Q15700; “below the threshold” with PTPN13_4, Q12923; “below the threshold” with PARD3B_3, Q8TEW8; “below the threshold” with RIMS1, Q86UR5.

B3: HPV82-E6, Q9IR59 (peptide)
chain: PPRQRSETQV
Take B3: the pKd entry with DVL1, O14640 is on record as “below the threshold”; with PDLIM3, Q53GG5, “below the threshold”; with PDLIM4, P50479, “below the threshold”; with TJP1_1, Q07157, “below the threshold”; with AHNAK2, Q8IVF2, “below the threshold”; in the assay with MAGI2_1, Q86UL8, “below the threshold”. In addition, the pKd result in the assay with RGS12, O14924 is on record as “below the threshold”; in the assay with APBA3_2, O96018, “below the threshold”; in the assay with MAGI3_3, Q5TCQ9, “below the threshold”; in the assay with MAGI3_6, Q5TCQ9, “below the threshold”; with PDZD7_2, Q9H5P4, “below the threshold”; with PTPN4, P29074 it was “below the threshold”. Further, the pKd entry with NHERF1_2, O14745 is “below the threshold”; with SDCBP_1, O00560, “below the threshold”; in the assay with GRIP1_1, Q9Y3R0, “below the threshold”; with LNX2_4, Q8N448 it was “below the threshold”; with RGS3, P49796-9, “below the threshold”; with PDZRN4_2, Q6ZMN7, “below the threshold”. Further, the pKd entry is “below the threshold” in the assay with MLLT4, P55196; 4.28 with MAGI1_3, Q96QZ7; “below the threshold” with PDZD2_1, O15018; 4.32 in the assay with DLG2_1, Q15700; “below the threshold” with PTPN13_4, Q12923; “below the threshold” in the assay with PARD3B_3, Q8TEW8. In addition, the pKd entry with RIMS1, Q86UR5 is “below the threshold”.

These data come from publication PMC9482650, “Quantitative fragmentomics allow affinity mapping of interactomes” (Nature Communications, 2022).
